Results as given in patent US20150044246A1 (IMMATICS BIOTECHNOLOGIES, published 2015).

B1: ALLNIKVKL derived from keratin 18 (peptide)
peptide: ALLNIKVKL
notes: MHC class I ligand eluted from renal cell carcinoma tissue and identified by mass spectrometry; also called keratin 18 peptide; keratin 18-peptide
B2: YVDPVITSI derived from met proto-oncogene (peptide)
peptide: YVDPVITSI
notes: MHC class I ligand eluted from renal cell carcinoma tissue; also called met-proto-oncogene peptide
B3: SVASTITGV from adipophilin (peptide)
peptide: SVASTITGV
notes: MHC class I ligand eluted from renal cell carcinoma tissue; also called adipophilin peptide; ADFP peptide

What follows are binders tested against T1, HLA-A*0201 (recombinant, refolded with peptide for tetramer production) (human) (assay: reconstitution of HLA-A*0201 tetramers with peptide).
T1 construct: Monomers were biotinylated; also called HLA-A2

binding result	Binder
binds	B1
binds	B2
binds	B3
